{"source": "paper PMC10992996", "about": "“Human CRB1 and CRB2 form homo- and heteromeric protein complexes in the retina” (Life Science Alliance, 2024)", "binders": {"B1": {"name": "Human canonical CRB2 (Crumbs homolog 2) (natural protein)", "chain": "not shown", "notes": "Crumbs homolog 2, human, cDNA NM_173689; Stood as bait (FLAG copy) and as prey (HA copy) in the pairwise co-IP matrix; each copy carries only one of the two tags; The FLAG copy was the bait of the mass spectrometry pull-downs; also called CRB2-FLAG; CRB2-HA; source: HEK293T, transfected, in lysate (co-IP); HEK293T, transfected, FLAG-IP on beads, washed and purified with 0.01% SDS (retina …)"}}, "target": "T1, CRB1-FLAG p.Y1161C (human, UniProt P82279 26-1406, p.Y1161C)", "T1 construct": "Crumbs homolog 1, canonical form, human, cDNA NM_202153 as printed, with a patient missense mutation; Made by site-directed mutagenesis of m1; also called CRB1 p.Y1161C; CRB1-FLAG MT; source: HEK293T, transfected, in lysate; not shown: Strep-Strep-FLAG, N-terminal, kept", "T1 sequence (looked up)": "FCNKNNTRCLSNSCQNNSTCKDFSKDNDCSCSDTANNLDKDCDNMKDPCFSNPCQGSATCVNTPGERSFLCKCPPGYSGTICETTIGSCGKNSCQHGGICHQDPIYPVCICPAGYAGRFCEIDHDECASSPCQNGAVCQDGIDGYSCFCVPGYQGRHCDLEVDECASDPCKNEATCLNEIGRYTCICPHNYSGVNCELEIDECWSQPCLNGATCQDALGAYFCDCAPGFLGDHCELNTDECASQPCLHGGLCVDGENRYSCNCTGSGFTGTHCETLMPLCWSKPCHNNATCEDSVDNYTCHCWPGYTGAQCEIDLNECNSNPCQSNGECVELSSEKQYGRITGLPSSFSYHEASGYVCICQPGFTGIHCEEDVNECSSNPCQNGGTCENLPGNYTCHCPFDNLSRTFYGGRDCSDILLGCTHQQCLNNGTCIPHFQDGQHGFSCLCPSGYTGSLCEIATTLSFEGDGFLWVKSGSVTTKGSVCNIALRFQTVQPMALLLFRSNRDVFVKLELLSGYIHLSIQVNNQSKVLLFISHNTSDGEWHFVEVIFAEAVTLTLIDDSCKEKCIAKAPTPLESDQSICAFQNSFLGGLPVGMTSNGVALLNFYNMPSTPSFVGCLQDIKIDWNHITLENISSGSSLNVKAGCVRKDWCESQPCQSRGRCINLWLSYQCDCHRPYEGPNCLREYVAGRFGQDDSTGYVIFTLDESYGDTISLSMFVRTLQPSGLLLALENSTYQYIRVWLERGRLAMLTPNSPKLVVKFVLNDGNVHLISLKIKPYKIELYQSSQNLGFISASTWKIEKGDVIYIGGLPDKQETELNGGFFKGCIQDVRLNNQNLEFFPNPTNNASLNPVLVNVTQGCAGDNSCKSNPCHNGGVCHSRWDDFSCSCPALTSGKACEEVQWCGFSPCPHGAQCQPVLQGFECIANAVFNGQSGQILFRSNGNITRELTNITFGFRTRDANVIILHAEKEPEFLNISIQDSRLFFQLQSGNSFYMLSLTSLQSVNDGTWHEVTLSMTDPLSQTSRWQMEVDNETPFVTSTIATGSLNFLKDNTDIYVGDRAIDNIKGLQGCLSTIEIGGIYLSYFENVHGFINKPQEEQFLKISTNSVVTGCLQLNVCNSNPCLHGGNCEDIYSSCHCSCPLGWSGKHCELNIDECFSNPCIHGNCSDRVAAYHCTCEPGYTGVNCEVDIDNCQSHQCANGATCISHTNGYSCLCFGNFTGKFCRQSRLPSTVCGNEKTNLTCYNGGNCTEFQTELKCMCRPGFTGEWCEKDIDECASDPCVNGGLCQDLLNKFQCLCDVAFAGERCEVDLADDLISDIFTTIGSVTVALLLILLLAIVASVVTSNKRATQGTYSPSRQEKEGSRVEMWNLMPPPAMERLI", "assay": "co-IP; HEK293T cells co-transfected pairwise with a FLAG and an HA construct, 48 h; lysis in TBS (30 mM Tris-HCl pH 7.4, 150 mM NaCl) with 0.5% Nonidet P40; FLAG-IP on ANTI-FLAG M2 Affinity Gel 60-90 min at 4°C, elution with FLAG peptide; Western blot with HA and FLAG antibodies; for mutants HA/FLAG signal in eluates relative to WT, three biological replicates", "conditions": "partners not purified", "data": [{"binder": "B1", "values": [{"measurement": "percent reduction of the interaction relative to CRB1 WT", "result": 11, "unit": "%"}]}]}
